Experimental data taken from US20040053388A1, “Detection of protein conformation using a split ubiquitin reporter system” (priority 2003, published 2004).
Substitutions are numbered along the chain they refer to.

Assays:
[1] = target: HA-tagged Ste4p (Saccharomyces cerevisiae) (UniProt P18851); experiment: cell-based or functional assay
[2] = test system: yeast cells; experiment: Growth assay of Nub-p53core-Cub—RUra3p yeast cells on media containing 5-FOA; type: cell-based; conditions: Nia fusion protein
Source text: The wild-type core domain and a destabilizing mutation V143A were further tested using a simple growth assay employing the R-ura3 reporter (see above) and selecting clones that can grow on 5-FOA. In this case the Nub (I13A) mutant Nia was used. If the Nub—X—Cub—R-ura3 fusion is […], the R-ura3 reporter will be cleaved off of the C-terminal end of Cub and subsequently be degraded by N-end rule components (see above), allowing the host yeast cell to grow on the 5-FOA selective media.
Consistent with previous results, the V143A core mutant is a destabilizing mutant when compared to the wild-type p53. […] The Nia fusion protein allows to distinguish between the cells expressing the wild type p53core (growth) and the cells expressing the V143A mutant of the core (non-growth).

[3] = target: Fpr1-Cub-Dha (Saccharomyces cerevisiae, UniProt P20081 1-114; P0CG63 35-76; P00375 1-187); experiment: split-ubiquitin in trans: coexpression in yeast, anti-ha immunoblot of cleaved Dha
Source text: (§1) A significant extent of the observed cleavage could arise from the intermolecular reassociation of two Ub-halves that are linked to two different polypeptides. To estimate the contribution of the intermolecular Ub-reassociation, Guk1-Cub-Dha was coexpressed with several versions of Nub-Guk1-ha as was Fpr1-Cub-Dha with several versions of Nub-Fpr1-ha (FIG. 4a). Good intermolecular Nub—Cub reassociation is only seen in cells expressing the Nᵢᵢ-fusions, whereas none or only background cleavage is seen in those cells co-expressing the corresponding Nig-fusions. Nub-mutants with a lower affinity for Cub than Nig were therefore not tested. It thus can be concluded that the cleaved Dha observed for Nig—Cub fusion proteins and for those fusion proteins containing a Nub with a lower affinity for Cub than Nig must result exclusively from the intramolecular reassociation of the coupled Ub-peptides. The structure of Guk1p offers a reasonable explanation for this observation, that can not apply for the Fpr1p fusion proteins. Here the reassociation must either occur before Fpr1p is folded or after the unfolding of the already matured protein. […] We conclude that the fraction of cleaved Dha which is detected in the immunoblot analysis of cells expressing Nvg-Fpr1-Cub-Dha is largely derived from fusion proteins which stayed in the cytosol long enough to give the Fpr1-moiety sufficient time to fold.

[4] = target: Guk1-Cub-Dha (Saccharomyces cerevisiae, UniProt P15454 1-187; P0CG63 35-76; P00375 1-187); experiment: as above
Source text: as §1

[5] = test system: S. cerevisiae cells; experiment: Intrapolypeptide split-ubiquitin cleavage of Nub—X—Cub-Dha fusions, anti-HA immunoblot with chemiluminescence quantification; type: cell-based, Saccharomyces cerevisiae; conditions: yeast cells; for cleavage (percentage of cleaved Dha compared to the sum of cleaved and uncleaved fusion protein): 30° C., one hour induction with 100 μM CuSO4, anti-HA immunoblot
Source text: The isoleucine residues at position three and thirteen of Nub (Nii) were replaced by valine (Nxv; Nvx) alanine (Nxa; Nax) and glycine (Nxg; Ngx) (Johnsson et al., Proc. Natl. Acad. Sci. USA 91: 10340-44, 1994; Kellis et al., Biochemistry 28: 4914-22, 1989). The residues at position 3 and 13 are indicated by the suffix in Nub with the corresponding amino acids in the single letter code. The sixteen different combinations were first tested in the otherwise native Ub which was attached in front of the dihydrofolate reductase carrying the HA epitope at its C-terminus (Ub-Dha). The analysis of the cleaved and uncleaved protein was performed by immunodetection of the proteins with the anti-HA antibody after cell extraction and SDS-PAGE separation.
S. cerevisiae cells expressing the different Nub—X—Cub-fusions were grown at 30° C. in […] of SD medium to an OD600 of 0.8 and supplemented with 100 μM CuSO4 one hour prior to cell extraction. Cell extraction for immunoblotting was performed essentially as previously described (Johnsson et al., Embo J. 13: 2686-98, 1994). Proteins were fractionated by SDS-12.5% PAGE and electroblotted onto nitrocellulose membranes (Schleicher and Schuell, Dassel, Germany), using a semi-dry transfer system (Hoefer, Pharmacia Biotech INC., San Francisco, Calif.). Blots were incubated with a monoclonal anti-ha antibody (Babco, Richmond, Calif.). Bound antibody was visualized with horseradish peroxidase-coupled rabbit anti-mouse or goat anti-rabbit antibody (BioRad, Hercules, Calif.), using the chemiluminescence detection system (Pierce, Rockford, Ill.). The chemiluminescence was quantified with the aid of the lumi-imager system (Boehringer, Mannheim, Germany).

Sequence of HA-tagged Ste4p (Saccharomyces cerevisiae) (P18851 other isoform, or with tags, fused parts or gaps limits assumed): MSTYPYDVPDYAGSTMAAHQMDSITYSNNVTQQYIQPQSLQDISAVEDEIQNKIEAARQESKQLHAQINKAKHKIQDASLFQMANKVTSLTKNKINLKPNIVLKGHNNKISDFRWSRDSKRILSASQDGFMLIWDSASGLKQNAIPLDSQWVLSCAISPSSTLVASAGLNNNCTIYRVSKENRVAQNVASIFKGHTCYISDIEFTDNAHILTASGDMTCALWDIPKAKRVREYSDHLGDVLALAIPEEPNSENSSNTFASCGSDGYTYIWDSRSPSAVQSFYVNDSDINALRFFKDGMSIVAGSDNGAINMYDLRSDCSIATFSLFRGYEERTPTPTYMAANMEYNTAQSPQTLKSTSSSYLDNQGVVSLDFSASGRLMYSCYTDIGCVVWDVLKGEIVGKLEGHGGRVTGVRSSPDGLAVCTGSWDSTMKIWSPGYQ
Sequence of Fpr1-Cub-Dha (P20081 other isoform, or with tags, fused parts or gaps): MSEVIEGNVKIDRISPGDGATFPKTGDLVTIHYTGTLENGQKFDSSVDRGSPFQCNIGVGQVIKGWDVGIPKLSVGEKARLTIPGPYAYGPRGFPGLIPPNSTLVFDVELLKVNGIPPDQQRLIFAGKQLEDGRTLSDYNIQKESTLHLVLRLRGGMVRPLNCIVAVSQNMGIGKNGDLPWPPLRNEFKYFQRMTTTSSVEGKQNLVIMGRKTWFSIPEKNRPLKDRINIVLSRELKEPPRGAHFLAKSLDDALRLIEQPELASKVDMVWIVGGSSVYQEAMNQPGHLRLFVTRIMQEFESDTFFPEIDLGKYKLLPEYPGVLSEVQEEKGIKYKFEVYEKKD
Sequence of Guk1-Cub-Dha (P15454 other isoform, or with tags, fused parts or gaps): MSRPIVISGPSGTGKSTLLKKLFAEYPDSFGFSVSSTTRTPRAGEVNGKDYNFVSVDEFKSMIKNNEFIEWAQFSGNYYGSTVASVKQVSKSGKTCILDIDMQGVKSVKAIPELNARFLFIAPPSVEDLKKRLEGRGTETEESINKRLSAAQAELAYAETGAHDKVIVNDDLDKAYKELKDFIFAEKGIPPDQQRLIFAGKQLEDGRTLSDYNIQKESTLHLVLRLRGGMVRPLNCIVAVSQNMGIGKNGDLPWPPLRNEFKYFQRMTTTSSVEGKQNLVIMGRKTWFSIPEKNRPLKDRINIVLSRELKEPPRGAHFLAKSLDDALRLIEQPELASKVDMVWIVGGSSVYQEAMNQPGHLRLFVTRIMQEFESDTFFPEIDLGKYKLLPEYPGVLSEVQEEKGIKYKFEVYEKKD

Molecule: Nvg-Ste1891-Cub-Dha (from UniProt P0CG63 1-37; P18852 20-105; P0CG63 35-76; P00375 1-187)
- fraction of uncleaved fusion protein (ratio of uncleaved to cleaved) with HA-Ste4p against without, inducing conditions (+Cu2+) [1]: 2 fold
- fraction of uncleaved fusion protein (ratio of uncleaved to cleaved) with HA-Ste4p against without, non-inducing conditions [1]: 3.6 fold

Molecule: wild type p53core: p53 core domain (amino acids 102-292) in Nub-p53core-Cub—RUra3p fusion
- growth on media containing 5-FOA [2]: growth

Molecule: Nvg-Ste1874-Cub-Dha (from UniProt P0CG63 1-37; P18852 37-105; P0CG63 35-76; P00375 1-187)
- ratio of uncleaved to cleaved fusion protein with HA-Ste4p against without, expression not induced by copper [1]: 1.6 fold

B1: Nig-Fpr1-ha (other, UniProt P0CG63 1-37, looked up, not shown: small tags and cut ends)
chain: MQIFVKTLTGKTGTLEVESSDTIDNVKSKIQDKEGIPMSEVIEGNVKIDRISPGDGATFPKTGDLVTIHYTGTLENGQKFDSSVDRGSPFQCNIGVGQVIKGWDVGIPKLSVGEKARLTIPGPYAYGPRGFPGLIPPNSTLVFDVELLKVN
notes: also called Nub-Fpr1-ha; Nig-fusion
- binding result [3]: no binding

B2: Nig-Guk1-ha (other, UniProt P0CG63 1-37, looked up, not shown: small tags and cut ends)
chain: MQIFVKTLTGKTGTLEVESSDTIDNVKSKIQDKEGIPMSRPIVISGPSGTGKSTLLKKLFAEYPDSFGFSVSSTTRTPRAGEVNGKDYNFVSVDEFKSMIKNNEFIEWAQFSGNYYGSTVASVKQVSKSGKTCILDIDMQGVKSVKAIPELNARFLFIAPPSVEDLKKRLEGRGTETEESINKRLSAAQAELAYAETGAHDKVIVNDDLDKAYKELKDFIFAEK
notes: also called Nub-Guk1-ha; Nig-fusion
- binding result [4]: no binding

B3: Guk1V5R: Fusion construct of Guk1p with valine 5 replaced by arginine (protein, UniProt P15454 2-187, looked up, variant V5R)
Guanylate kinase: SRPIRISGPSGTGKSTLLKKLFAEYPDSFGFSVSSTTRTPRAGEVNGKDYNFVSVDEFKSMIKNNEFIEWAQFSGNYYGSTVASVKQVSKSGKTCILDIDMQGVKSVKAIPELNARFLFIAPPSVEDLKKRLEGRGTETEESINKRLSAAQAELAYAETGAHDKVIVNDDLDKAYKELKDFIFAEK
modifications: split-ubiquitin fusion construct
notes: Fusion construct of Guk1p with valine 5 replaced by arginine
- cleavage (percentage of cleaved Dha compared to the sum of cleaved and uncleaved fusion protein) [5]: 61%

B4: Nvg-Guk1G8R—Cub-Dha: Nvg—Cub-Dha fusion of Guk1p with glycine 8 replaced by arginine (protein, UniProt P15454 2-187, looked up, variant G8R)
Guanylate kinase: B3 Guanylate kinase with R5V, G8R
modifications: fused to Nvg, Cub, Dha
notes: Nvg—Cub-Dha fusion of Guk1p with glycine 8 replaced by arginine
- cleavage of fusion protein (in words) ([5]; anti-HA immunoblot): cleaved as completely as the corresponding wild type construct

B5: Fpr1V107A (protein, UniProt P20081 2-114, looked up, variant V107A)
FK506-binding protein 1: SEVIEGNVKIDRISPGDGATFPKTGDLVTIHYTGTLENGQKFDSSVDRGSPFQCNIGVGQVIKGWDVGIPKLSVGEKARLTIPGPYAYGPRGFPGLIPPNSTLVFDAELLKVN
- cleavage (percentage of cleaved Dha compared to the sum of cleaved and uncleaved fusion protein) [5]: 55%

B6: Fpr1V107G (protein, UniProt P20081 2-114, looked up, variant V107G)
FK506-binding protein 1: B5 FK506-binding protein 1 with A107G
- cleavage (percentage of cleaved Dha compared to the sum of cleaved and uncleaved fusion protein) [5]: 40%
